Measurements as given in US20200317802A1.

Columns and labels:
[1] = biological target: activated human MMP-14 (human) (UniProt P50281)
[2] = biological target: activated human MMP-1 (human) (UniProt P03956)
activated human MMP-1 (human), sequence (P03956 100-469 limits assumed): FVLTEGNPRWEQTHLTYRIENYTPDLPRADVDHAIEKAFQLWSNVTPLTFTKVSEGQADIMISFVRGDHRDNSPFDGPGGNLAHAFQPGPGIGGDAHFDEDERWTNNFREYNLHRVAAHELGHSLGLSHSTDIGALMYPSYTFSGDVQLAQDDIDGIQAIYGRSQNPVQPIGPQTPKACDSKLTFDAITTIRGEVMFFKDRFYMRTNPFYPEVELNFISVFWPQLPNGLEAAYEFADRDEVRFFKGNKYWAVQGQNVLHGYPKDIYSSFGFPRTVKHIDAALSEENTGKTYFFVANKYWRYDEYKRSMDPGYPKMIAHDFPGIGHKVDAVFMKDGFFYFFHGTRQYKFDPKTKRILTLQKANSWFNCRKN

TIMP2 (from UniProt P16035 27-220)
IC50 (read off the curve) (human MMP-14 activity, FRET peptide substrate) [1]: 6 nM
IC50 (read off the curve) (human MMP-1 activity, FRET peptide substrate) [2]: 0.9 nM
